The text below walks through data of publication doi:10.1101/2022.11.15.516482 (bioRxiv, 2022).

The target in series [1] is Salpingoeca rosetta caveolin (F2U793) (Salpingoeca rosetta). Put plainly: cryo-EM structure.
The series “cryo-EM structure” concerns the molecule itself. Put plainly: cryo-EM structure.

Regarding “Salpingoeca rosetta caveolin (F2U793) (natural protein)”, in series [1], the stoichiometry N was 11.

B1: Strongylocentrotus purpuratus caveolin (A0A7M7T4C2) (natural protein, UniProt A0A7M7T4C2 1-159, looked up)
chain: MELIHPENGPSGTVQVPLIQGVDQSDTEDVYRLSPHVTTGFADTFKESNDIMGFSFMEKVNGAIYKYTHFAFYAVLNLLLAPFIAFSFGLSFAVMHFAVVWFVQPIMKLYYVWLRVFNLAYEPALRLVCDPIHRSIALILSGIKGQFKMNSSDVKTSQV
For the molecule B1, the “stoichiometry N” value in the series “cryo-EM structure” is 11.
